B1: Transcriptional regulator ERG, residues 117 to 197; numbered along this chain, P11308 (parent)
chain: NMTTNERRVIVPADPTLWSTDHVRQWLEWAVKEYGLPDVNILLFQNIDGKELCKMTKDDFQRLTPSYNADILLSHLHYLRE

Variants of: B1
Assay: abundance fitness (aPCA) (normalised: wild type 0, dead -1); higher = more abundant; growth selection in yeast, the domain comes from the species named
Details: Homo sapiens

Abundance fitness of substitutions, site by site:
V11: D 0.013, S 0.104, R 0.209, A 0.102, C 0.106, K 0.029, N 0.063, W 0.2, M 0.087, Y 0.113, F 0.078, I 0.102, E 0.056, H 0.321, Q -0.017, L 0.067, G 0.05
V9: C 0.046, I -0.034, N 0.099, A 0.12, T 0.054, R 0.113, S 0.137, Y -0.062, H 0.034, W 0.038, F 0.075, L 0.096, D 0.269, Q 0.243, K 0.16, P 0.292, M 0.132, E 0.207
W18: V -0.937, A -0.676, H -1.04, L -0.979, Q -0.578, N -0.994, P -1.17, D -0.923, E -0.885, S -0.864, M -0.635, Y -0.738, K -0.625, G -0.895, F -0.886, R -0.785, C -1.04
D21: V -0.077, H -0.09, Q -0.087, R -0.051, I -0.035, L -0.106, Y -0.186, A 0.004, S -0.008, F 0.024, K -0.138, N -0.113, W -0.141, C -0.09, M -0.084, G -0.032, T -0.065, E 0.042
D14: N -0.083, F -0.444, G -0.706, P -0.898, E -0.346, Y -0.723, R -0.783, H -0.146, C -0.085, K -0.872, I -0.726, L -0.771, W -0.809, M -0.537, V -0.656, T -0.417, A -0.716
L17: R 0.039, H 0.045, G 0.074, V 0.017, F -0.295, S 0.122, N 0.053, D 0.091, E 0.093, I -0.002, Y -0.097, M 0.046, W -0.041, C 0.042, T 0.154, P -1.08, Q 0.033
R24: H -0.182, C -0.058, Q 0.077, Y -0.209, F -0.218, L -0.017, D -0.908, G -0.088, N -0.105, I -0.162, K 0, W -0.522, V -0.015, S -0.02, T 0.069, E -0.211, P -0.988, M -0.023
R8: S -0.117, V -0.478, P -0.137, H -0.098, L -0.29, I -0.323, T -0.022, W -0.881, K 0.104, N 0.028, Q -0.011, M -0.263, Y -0.496
S19: T -0.073, G -0.133, N -0.008, E -0.129, W -0.683, Q -0.235, I -0.697, P -0.994, H -0.18, K -0.065, A -0.223, F -0.719, D -0.014, V -0.716, Y -0.798, L -0.565, R -0.145
P12: Y -0.45, A -0.176, C -0.644, V -0.631, K -0.215, L -0.505, M -0.65, S -0.209, D -0.042, W -0.15, E -0.019, N -0.027, F -0.486, H -0.452, R -0.248, G -0.136, I -1.37, T -0.343
Q25: H -0.046, I -0.001, A 0.03, N -0.214, C -0.015, P -1, D -0.061, F -0.072, Y -0.07, R -0.003, E 0.022, V 0.01, K -0.015, G -0.095, S -0.05, L 0.064, M 0.022
W26: F -0.068, R -0.808, C -0.982, P -0.956, N -0.657, T -1.34, Q -0.811, H -0.96, E -0.727, Y 0.011, A -0.886, S -0.76, K -0.785, L -0.658, G -0.965, V -0.778, I -0.942
I10: H 0.138, K 0.109, A 0.124, R 0.093, V 0.03, Q 0.129, M 0.038, C -0.026, F -0.06, W -0.089, P 0.214, Y -0.013, D 0.328, S 0.116, E 0.21, G 0.227, L -0.058, T 0.264
T20: P 0.06, F -0.205, G -0.225, M -0.219, I -0.11, L -0.198, A 0.021, R -0.05, Y -0.276, Q -0.064, W -0.413, S -0.053, E 0.011, N -0.072, D -0.206, H -0.012
H22: P -1.06, E 0.018, C -0.229, T -0.324, S -0.357, L -0.532, M -0.033, G -0.18, D -0.014, W -0.55, I -0.488, N 0.074, Y -0.672, A -0.286, F -0.701, V -0.198
L27: N -1.02, I -0.085, E -0.965, F -0.493, Q -0.658, M -0.153, P -0.593, D -0.648, K -0.623, C -0.47, S -1, R -0.912
P15: E -0.86, H -0.86, I -0.171, T -0.632, Y -0.266, S -0.611, A -0.269, D -0.94, L -0.41, R -0.835, G -0.803, F -0.273, N -0.967, M -0.638, C -0.323, V -0.267, W -0.516, Q -0.495, K -0.915
A13: T 0.108, D 0.235, I 0.056, Q 0.11, F -0.074, C 0.009, V -0.01, W -0.122, H 0.045, M -0.033, P 0.116, N 0.06, L -0.046, G 0.061, Y -0.075, K -0.05, R 0.043
V23: S -0.761, P -0.877, C -0.328, W -0.798, R -1.04, D -0.781, K -0.991, L -0.874, H -0.846, N -0.475, Y -0.905, I -0.5, Q -1.04, G -0.997, A -0.68, T -0.167
T16: D -0.115, I 0.048, P -0.428, L 0.052, G -0.026, F -0.008, C 0.028, Q -0.171, Y 0.017, W -0.115, S -0.064, M 0.02, N -0.061, K -0.05, H 0.128, R -0.092
